# US20250051821
# What was measured:
# IFF01509 = target: T1, IFF01509
# T1 chain: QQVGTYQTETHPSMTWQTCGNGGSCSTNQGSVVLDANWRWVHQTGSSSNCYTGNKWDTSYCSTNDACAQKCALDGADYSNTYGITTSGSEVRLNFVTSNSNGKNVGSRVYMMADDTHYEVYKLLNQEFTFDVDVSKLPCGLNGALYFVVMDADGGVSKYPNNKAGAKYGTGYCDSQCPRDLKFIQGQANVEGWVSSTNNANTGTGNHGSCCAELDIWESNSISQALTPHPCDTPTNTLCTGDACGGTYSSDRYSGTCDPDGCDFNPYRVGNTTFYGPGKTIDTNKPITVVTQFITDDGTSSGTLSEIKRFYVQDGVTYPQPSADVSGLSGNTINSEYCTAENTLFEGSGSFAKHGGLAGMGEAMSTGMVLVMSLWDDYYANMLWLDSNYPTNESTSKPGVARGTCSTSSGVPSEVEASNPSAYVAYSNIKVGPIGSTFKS
# IFF01540 = target: T2, IFF01540
# T2 chain: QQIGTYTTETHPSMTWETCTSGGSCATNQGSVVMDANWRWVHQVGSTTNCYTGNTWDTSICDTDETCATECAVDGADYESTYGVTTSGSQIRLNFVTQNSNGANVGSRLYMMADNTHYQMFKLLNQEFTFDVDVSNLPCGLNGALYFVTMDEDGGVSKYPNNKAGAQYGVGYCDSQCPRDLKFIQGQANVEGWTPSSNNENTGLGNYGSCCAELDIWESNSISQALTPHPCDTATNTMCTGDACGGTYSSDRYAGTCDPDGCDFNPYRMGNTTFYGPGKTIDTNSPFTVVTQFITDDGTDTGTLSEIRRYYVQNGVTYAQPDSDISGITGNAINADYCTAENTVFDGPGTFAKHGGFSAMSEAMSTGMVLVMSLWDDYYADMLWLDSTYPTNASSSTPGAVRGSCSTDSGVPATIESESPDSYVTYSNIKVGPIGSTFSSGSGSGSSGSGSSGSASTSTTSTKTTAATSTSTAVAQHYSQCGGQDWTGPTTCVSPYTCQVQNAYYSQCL
# IFF07399 = target: T3, IFF07399
# T3 chain: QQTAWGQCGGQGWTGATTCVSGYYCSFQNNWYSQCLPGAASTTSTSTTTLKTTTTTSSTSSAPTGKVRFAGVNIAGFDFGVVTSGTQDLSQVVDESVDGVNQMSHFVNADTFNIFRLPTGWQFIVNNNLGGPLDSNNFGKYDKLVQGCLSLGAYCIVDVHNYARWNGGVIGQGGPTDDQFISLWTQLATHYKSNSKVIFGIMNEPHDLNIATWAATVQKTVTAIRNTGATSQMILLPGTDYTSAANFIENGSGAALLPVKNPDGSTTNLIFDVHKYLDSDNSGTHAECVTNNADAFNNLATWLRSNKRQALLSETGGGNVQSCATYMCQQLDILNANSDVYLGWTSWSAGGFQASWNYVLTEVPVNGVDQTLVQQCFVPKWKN
# IFF05588 = target: T4, IFF05588
# T4 chain: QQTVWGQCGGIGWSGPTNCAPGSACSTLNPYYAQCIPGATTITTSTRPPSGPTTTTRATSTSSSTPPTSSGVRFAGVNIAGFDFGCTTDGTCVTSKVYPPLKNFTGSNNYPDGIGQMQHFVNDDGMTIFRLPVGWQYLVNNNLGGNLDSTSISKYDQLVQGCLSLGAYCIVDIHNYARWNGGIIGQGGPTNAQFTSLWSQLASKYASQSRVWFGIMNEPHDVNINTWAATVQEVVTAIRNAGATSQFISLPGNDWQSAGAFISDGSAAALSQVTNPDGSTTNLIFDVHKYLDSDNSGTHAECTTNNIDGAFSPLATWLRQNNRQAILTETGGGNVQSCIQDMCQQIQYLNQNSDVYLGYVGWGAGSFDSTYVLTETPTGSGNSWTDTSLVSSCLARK
# [1] = target: T5, IFF01073 produced in E. coli without glycosylation
# T5 chain: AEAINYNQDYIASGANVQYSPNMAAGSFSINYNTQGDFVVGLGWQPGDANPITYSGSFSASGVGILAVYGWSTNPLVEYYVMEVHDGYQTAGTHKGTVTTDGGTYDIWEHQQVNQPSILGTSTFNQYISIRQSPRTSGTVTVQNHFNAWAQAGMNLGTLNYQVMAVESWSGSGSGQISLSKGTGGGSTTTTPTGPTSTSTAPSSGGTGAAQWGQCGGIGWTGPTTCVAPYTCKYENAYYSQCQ
# [2] = target: T6, IFF01073 produced in T. reesei with glycosylation
# T6 chain: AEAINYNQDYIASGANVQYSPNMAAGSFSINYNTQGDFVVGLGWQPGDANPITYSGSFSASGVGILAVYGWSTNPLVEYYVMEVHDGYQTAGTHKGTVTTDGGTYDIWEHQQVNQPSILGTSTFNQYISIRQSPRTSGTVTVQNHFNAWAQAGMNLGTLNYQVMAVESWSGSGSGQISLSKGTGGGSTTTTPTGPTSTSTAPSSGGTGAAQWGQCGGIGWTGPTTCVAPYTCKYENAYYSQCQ
protein,measurement,setting,value
IFF05497 (protein) LAILDKPVIQPNFPGNGLASLGQGLMDHLAPTHSTWDDWGAGWIPQDCKSLVEGAGLSASDVIPFNIHYDDCAQTWTFCRHKDSPLSEITILDIFGRLPVRMRSFVRHLVFIPGAKSAGSNGDNVLLRGDIDVTVFAHEIGHSLDSHAFDPSYGVPFSTGNVWISNYNLDSAVPDPYAQTSQQENFAQQTVISLYDKVVPGGIGTIQPNWQAIFHQYATLEGYIGDVIIPGGTCTHRLTDSPPVQMSSLAKGRRALGPKPNVALSPEVEEIEAIPMKSSITMTSFDEAGKPNGTYVINL,Mobility change (SDS-PAGE),IFF01509,no
same,Mobility change (SDS-PAGE),IFF06679,yes
same,Mobility change (SDS-PAGE),IFF01540,yes
same,Mobility change (SDS-PAGE),IFF08955,no
same,Mobility change (SDS-PAGE),IFF08955v3,yes
same,Gel mobility change (SDS-PAGE),IFF07399,yes
same,Mobility change (SDS-PAGE),IFF07399,yes
same,Mobility change (SDS-PAGE),IFF03904,yes
same,Mobility change (SDS-PAGE),IFF05588,yes
same,"Relative late peak area (centered, scaled, averaged over 5, 10 and 15 min)",IFF05588,-0.77
same,"Relative late peak area (centered, scaled, averaged over doses, 24 h; sample diluted 1-fold)",IFF05588,-0.28
same,Gel mobility change (SDS-PAGE),[1],no
same,Gel mobility change (SDS-PAGE),[2],yes
same,Mobility change (SDS-PAGE),[2],yes
